Measured values taken from the DeepSol protein solubility set.

Assay: soluble on expression in E. coli; label from the status in PepcDB or PDB records

Soluble on expression in E. coli, not soluble:
MGSDKIHHHHHHMDAIARELRTSRSTVSRLLSAARETGLVQIQIRNPLDTGPELENMIRTQYRVDVHVVPVLDTLNEAETLDRVAMQAARTIGPLVDSNAIIGVAWGSTLSAVSRHLTRKITHDSVIVQLNGAGNMQTTGITYASDIMRRFGSAYGARVEQFPVPAFFDHAATKTAMWNERSVQRILELQSRMSIAIFGVGSVDADYPSHVYAGGYLDEDDLNILANSDVVGDVATVFFRGDGSSDGITLNERSTGPALAQLRQVRRRICVVSGASKINGLRGALAAGLATDLILDEATARRLVSFDGLS
MGSDKIHHHHHHMDAMKYNDLRDFLTLLEQQGELKRITLPVDPHLEITEIADRTLRAGGPALLFENPKGYSMPVLCNLFGTPKRVAMGMGQEDVSALREVGKLLAFLKEPEPPKGFRDLFDKLPQFKQVLNMPTKRLRGAPCQQKIVSGDDVDLNRIPIMTCWPEDAAPLITWGLTVTRGPHKERQNLGIYRQQLIGKNKLIMRWLSHRGGALDYQEWCAAHPGERFPVSVALGADPATILGAVTPVPDTLSEYAFAGLLRGTKTEVVKCISNDLEVPASAEIVLEGYIEQGETAPEGPYGDHTGYYNEVDSFPVFTVTHITQREDAIYHSTYTGRPPDEPAVLGVALNEVFVPILQKQFPEIVDFYLPPEGCSYRLAVVTIKKQYAGHAKRVMMGVWSFLRQFMYTKFVIVCDDDVNARDWNDVIWAITTRMDPARDTVLVENTPIDYLDFASPVSGLGSKMGLDATNKWPGETQREWGRPIKKDPDVVAHIDAIWDELAIFNNGKSA
MGSDKIHHHHHHMDANSLKAFLTIVDQGSFSEAAETLHLTQPAISKRLAALETQLGTRLIDRSNREIRLTEAGTRLLPHARKILDEIHNARMALTTSADSIGGELHAIASHHIGLHHLPNWLRRYRREYPQVDLHLQFMESDAAYDQMNKRNAELAFVTLSDSMNPEFSILAQWPDPMAFVVGKEHPLATLASPSLSDLAPHPALLPDTSTATYRVVSRLFLEANLTLRPLMPTNYLETIKMMVSVGLGWSILPVSMLDNSLKVLEVPHPVTRVLGAVALSRRQLGSAAQALLQIVEQEETRPESGQ
MGSDKIHHHHHHMDAPALPARWKVSAPELIAETFSSRIWKVVRDDGSPAVVKALKPFDDVADELRGEHFLAWRRGEGAVRLLGRDGHSMLLEYAGETLLTQVLDEQGDNAATAIAAELMTKLFSPSQHPYPPELQPLTERYTSLFRKAATDRGAGHASIYVEAAAIAERLLDNPHDIRPLHGDLHHDNILHGPRGWLVIDPKGVLGNPGFDAANMFYNPLDRDDLCLDPERIAHMAEVFAKTLGESPAAILDHAIAYGCLSAAWHHEDDNAVEENRELSIAKAIRAMRANF
MGSDKIHHHHHHMDDAMVSAVTCGAVMAFDRNIWIEKFLENSVPSFPCPHCSRGVLGFDGKSFWKEEPKHSKDAHAHDDWDPTWIEERFVMFLRCGVAKCGEVVAVSGNIEVEEVVDEDEGYDFASVLYPTSLVPAPPIIQMTDGTPDEVAGELSLAFQLFWADLGASATKIRTSVERLMDHFKVARYSRTKGKLKPIPLYNRIEAFIKANGKVVHQDHLHALRVVGNLGTHKNSLTRSDILEAFQVYEHALDELIGKKSASIAKLARKLKKK
MGSDKIHHHHHHMDDRARALLKALIERYIADGQPVGSRTLSKVFDLSPATIRNVMADLEELGLIHSPHTSAGRVPTPRGYRMFVDSLLAVRAYQFEPAHIGELLPVSEPSRAVNAAAALLSNLTQFAGVVLTPKRTQIFRQIEFIRLSDKRVLLIIVTPEGDVQNRILSAQRDYTEAELLEAGNFFNVHFSGKSFDAVRRTLSTELAQLRDDISRLMQAAVEAGAEAADDGEAVVISGERKLLDVTDIASDMDRLRKMFSLFEKKTDLLQLLDVSSRAQGVQIYIGGDSQLVPMEEVSVITAPYGVDGKVIGTLGVIGPTRMAYERVIPIVDITARLLSNALSHNQ
MGSDKIHHHHHHMDGINTLRYSDLFLAMYFDGGKSCLHRNHSHVLVYVYSGEMVIDEKGQITRLHKGECAFIRKDFSVQMTKQAWNGEQFKAIFLMFTMKFLRDFYSKLDRNTLPKDAKRDQVSLYKLPSNRPDIVSLFESMTPYFNSKIQPTDELLQLKMVEGVYVLLNTDKNLYASIFDFTDPWKIDILEFMERNYMNDISMEEIANYTGRSLSTFKRDFKKCSALSPREWLIRRRLEAAHGLIRKGGRKVSEICFEVGFKNLSHFSKIYKIAYGVPPTEDI
MGSDKIHHHHHHMDIKQIRYFIAIVENHFNLSQAAELLYVSQPTLSMMINDFEKRENVKLFKRKRGRIIGLTYLGDNYYKDAQKVLSLYDDMFLKLHDHSKGLKGSINIGIPPLILSVVFSEVMPKLILENPGIQFNVKEIGAYQLKNELLVGNVDVAVLLSPTGIADNLVETYEIQRSELSVCLSPRHRLASKKVIQWEDLTDEQLALFDPSFMVHHLVLEACERHQVRPNIILTSSSWDFMLNSTKINHNVLTICPKPITELYQLKDIKCIPMERPISWRVVLTRLRKKSYSEIEAYIMDDLLQSFFK
MGSDKIHHHHHHMDINADFSERVMVQSADLDWVASPMPGVDRRMLDRIGGEVARATSIVRYAPGSNFSAHTHTGGEEFVVLDGVFQDEHGDYPAGTYVRNPPTTSHTPGSDEGCTIFVKLWQFDMDDRTQFRRDMAAGGDRSVLHEDAFEIVTYHRLAPGAALEDPADGGAELLVLAGSLTEGGDTLITGGWLRLPESSTMHAVAGSEGATVWMKTGHLPHAKPPAVGRTR
MGSDKIHHHHHHMDITPFLNRTLDIPLYQQLYRYFKENMHRGRIQKGMKLPSKRLLANQLSISQTTVERAYEQLAAEGYIVSKPRSGWFADYHDSDFAYDRMPSTTPIQQEAEENKQWIDFHYGNVDSSYFPFSAWRKSMVNSLDQYGHELYRPGHVLGEFELRTLIAEYLYQSRGVHCGPEQVIIGAGNPILLQILCQVFEPNISIGYEDPGYPRARKIFEANRMNIVPIPVDDEGICIQKIKEQQPNLVYVTPSHQFTLGTIMTINRRIQLLKWAAENQSFIIEDDYDGEFRYTGQPVPSLQGLDQHNRVIYMGTFSKSLLPSLRISYMILPSPLLKKGHEITSLYKQTVSCHSQLTLAEFIKNGEWQKHINRMRKLYRKKRAIVLEAVQRELGEHVRIRGENSGLRILLDVYLPFGEKELIEKAKKHGVKIYPVSLSYQHHPPTKTVSLGFAGVSESDIREGIKKLKAAWKI
MGSDKIHHHHHHMDIYRHAQVMMNAAQAAHDLVDHLSIQPRGVVKVSVPVDIAQNLLPKILPAFLKKYPEIRLQLIVSNRRVDVINEGIDIALRVRSKLDDDPSLVLRQFALIEQSLFASQAYLNEFGNIKSPDELSDHRILSLSEEHLDQQFILHGPDNQLKKVKVSPTIMGTNIYMLAQLASQNCGIALLPDTAAEDFVKSGQLVQILPDWKAAHGIFHAVYPSRRGLLPAVRVFIDYLVEHLSEHP
MGSDKIHHHHHHMDKILNLDSVDLYNKLYGLETLNPLVSVIDLNKATSSVDLIRFNYGIYALYLKLEKACDIKYGRQTYDYQEGTIVCFAPGQTAETNPTTDKVQVNAHGILFHPDLLRGTSLGKNIKKYTFFSYEVNEALHLSEEERSIVMDCLKIIRMELEHGVDKHSKTLLVNHIELLLNYCMRFYERQFITRGKTNRDVLTRFENLLDEYFESTLAEQDGLPTVKYFADKLCLSSNYFGDMFKKETGKSPQEYIQEKVIELAKERISGTADTVSQIAYSLGFQYPQHSCRLFKKRVGYTPSEYRAQIGLSTNL
MGSDKIHHHHHHMDKLLYIAMSGAKQNMQALSINANNLANAKTTGFKADLAQARSMQAFGEGLPSRVFSMTERASQNFDSGSILHTGRSLDMAIEGEGFFAVQAEDGQEAYTRGGHFRLTETGALETNDGELVIGENGPITLPLPINNIQISRDGTIMVQPAGAPSSVQEEVGRIKLVNPDTRLVDKGNDGLFRAKNGGQLIADVNVNVLGGALESSNVNPINEMTDMIALQRQFEMQLKMMKTAEEIDSSASSLLRAF
